Tested on: Kelly neuroblastoma cells
Assay: PNA cellular uptake assay (fluorescence of cell lysate)
Format: cell-based, Human
Conditions: 0.1 μM in Opti-MEM, no transfecting agent, 24 h incubation (text; method: 6 h at 37°C, then 48 h), fluorescence of cell lysate and media 485/535 nm, 3 biological repeats and 4 technical repeats
From the text: Cellular uptake of the described tiny PNA sequence was studied in vitro on Human Kelly neuroblastoma cell line, without the use of any transfection agents, and compared to previously reported results from our group (Piacenti et al., [2019]). In particular, the PNA oligomers were provided with short peptide carriers at both termini consisting of a trilysines segment at the C-terminus and one lysine at the N-terminus (FITC-PNA2) or Cys-Lys dipeptide at the N-terminus (FITC-PNA3) (Table 1), that was previously reported by Fabani et al. ([2010]) to promote cellular uptake for PNA single strands. Kelly cells were incubated for 24 h with FITC-PNA2 or FITC-PNA3 sequences individually, at minimal 0.1 μM concentration in optiMEM, without the use of any transfecting agent and using a protocol for miRNA mimics delivery, which was previously optimized (Curtin, [2018]). Both peptide carriers were able to provide internalization of PNA sequences albeit to a different extent (Figure 9A); uptake was slightly higher than 3% for FITC-PNA2 and almost 5% for FITC-PNA3.
Kelly cells were seeded in 6-well plates in duplicates at 0.5 × 10^6 density. […] The fluorescence of the cell lysate and of the media was read in a dual beam plate reader, at 485/535 nm.

FITC- Ahx -CK - tggcagtg—KKK- NH2 [FITC-PNA3, PNA1 with Cys-Lys at N-terminus and KKK at C-terminus, FITC-Ahx; reported in previous work, used for comparison]
Cellular uptake (internalization): ~5%

FITC- Ahx -K- tggcagtg—KKK-NH2 [FITC-PNA2, PNA1 with K at N-terminus and KKK at C-terminus, Ahx linker and FITC fluorescent tag]
Cellular uptake (internalization): higher than 3%
